Source: US20210340265A1 (UNM RAINFOREST INNOVATIONS, published 2021)
Ends that are not written are not given here. * marks the point of attachment. Biotin = O=C1N[C@H]2[C@H](CS[C@H]2CCCCC(=O)*)N1

T1: 15-amino-acid extracellular CCK-B receptor peptide fragment CETPRIRGTGTRELE
T1 construct: Custom peptide (GenScript) used for immunization and panning; also called CCK-B peptide
T1 peptide: Biotin-CETPRIRGTGTRELE

T2: CCK-B receptor (as coated in the indirect ELISA; form not stated)
T2 chain: CETPRIRGTGTRELE


Key:
[1] = molecular target: T1, 15-amino-acid extracellular CCK-B …; assay: indirect ELISA on CCK-B receptor peptide
[2] = molecular target: T2, CCK-B receptor (as coated in the …); assay: ELISA

| binding result [1] | Kd [2] [nM] | Binder |
| --- | --- | --- |
| binds |  | CCKBR-scFv11-2 (scFv) scFv: MAQVQLKQSGAELVRPGSSVKISCKASGYAFTNYLIEWVKQRPGQGLEWIGQIYPGDGDTNYNGKFKGKATLTVDNSSSTAYMELRSLTSEDSAVYYCARAATWYYAMDYWGQGTSVTVSSGGGGSGGGGSAIMSASPGEKVTITCSASSSVSYMHWFQQKPGTSPKLWIYSTSNLASGVPARFSGSGSGTSYSLTISSMEAEDAASYFCHQWSSYPWTFGGGTKLEIKRADAAALEHHHHHH |
|  | 366 | CCK-BR-scFv134-1 (scFv) scFv: MAGAELVKPGASVKMSCKASGYTFTDYWMHWVKQRPGQGLEWIGAIDTSDSYTSYNQKFKGKATLTVDKSSSTAYIQLSSLTSEDSAVYYCARSEGYLPFDYWGQGTTLTVSSAKTTAPSGGGGSGGGGSGGGGGSGGGGSLSLPVSFGDQVSISCRSSQSLANSYGNTYLSWYLHKPGQSPQLLIYGISNRFSGVPDRFSGSGSGTDFTLKISTIKPEDLGMYYCLQGTHQPRTFGGGTKLEIKRADAAALEHHHHHH |
|  | 195 | CCK-BR-scFv77-2 (scFv) scFv: MAGAELVRSGASVKLSCTASGFNIKDYYIHWVKQRPEQGLEWIGWIDPENGDTEYAPKFQGKATMTADTSSNTAYLQLSSLTSEDTAVYYCNAGGRFAYWGQGTLVTVSAAKTTAPSGGGGSGGGGSGGGGGSGGGGSSSLSVSAGEKVTMSCKSSQSLLNSGNQKNYLAWYQQKPGQPPKLLIYGASTRESGVPDRFTGSGSGTDFTLTISSVQAEDLAVYYCQNDHSYPYTFGGGTKLEIKRADAAALEHHHHHH |
|  | 349 | CCK-BR-scFv14-3 (scFv) MAGAELVRSGASVKLSCTASGFNIKDYYIHWVKQRPEQGLEWIGWIDPENGDTEYAPKFQGKATMTADTSSNTAYLQLSSLTSEDTAVYYCNAGGRFAYWGQGTLVTVSAAKTTAPSGGGGSGGGGSGGGGGSGGGGSSSLSVSSGEKVTMSCKSSQSLLNSGNQKNYLAWYQQKPGQPPKLLIYWASTDESGVPDRFTGSGSGTDFTLTVSSVQAENLALYYCQNDHSYPYHVFDGGTKLEIKRADAAALE |
